Target: T1, Cyclophilin A (endogenous) (mouse (endogenous in mouse SCLC …, UniProt P17742 1-164))
T1 construct: cyclophilin A, encoded by Ppia, endogenous in cell lines derived from mouse SCLC tumors; also called CypA; PPIA; source: endogenous, mouse SCLC Type D (4711-18) and Type V (4716-10) cells, fixed cells
Assay: proximity ligation; Duolink PLA on fixed Type D (4711-18) and Type V (4716-10) mouse SCLC cells treated with 4-OHT for 48 h; endogenous proteins; antibodies to p53 and to cyclophilin A, D or E
Conditions: partners not purified

T1 sequence (P17742 whole entry): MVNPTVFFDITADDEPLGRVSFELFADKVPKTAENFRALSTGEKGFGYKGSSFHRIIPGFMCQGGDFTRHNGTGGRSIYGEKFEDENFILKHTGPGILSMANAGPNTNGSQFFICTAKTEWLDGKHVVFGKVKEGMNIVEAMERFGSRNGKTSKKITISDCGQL

fold less PLA interaction in Type V cells than in Type D cells: ~10 fold
B1: p53 (endogenous, restored Trp53 allele) (natural protein, UniProt P02340 1-390, looked up)
chain: MTAMEESQSDISLELPLSQETFSGLWKLLPPEDILPSPHCMDDLLLPQDVEEFFEGPSEALRVSGAPAAQDPVTETPGPVAPAPATPWPLSSFVPSQKTYQGNYGFHLGFLQSGTAKSVMCTYSPPLNKLFCQLAKTCPVQLWVSATPPAGSRVRAMAIYKKSQHMTEVVRRCPHHERCSDGDGLAPPQHLIRVEGNLYPEYLEDRQTFRHSVVVPYEPPEAGSEYTTIHYKYMCNSSCMGGMNRRPILTIITLEDSSGNLLGRDSFEVRVCACPGRDRRTEEENFRKKEVLCPELPPGSAKRALPTCTSASPPQKKKPLDGEYFTLKIRGRKRFEMFRELNEALELKDAHATEESGDSRAHSSYLKTKKGQSTSRHKKTMVKKVGPDSD
notes: p53 expressed from the restored endogenous Trp53 allele (p53 R state) in cell lines derived from mouse SCLC tumors; source: endogenous, mouse SCLC Type D (4711-18) and Type V (4716-10) cells after 4-OHT, fixed cells
